In publication PMC5869772, “Quantitative profiling of BATF family proteins/JUNB/IRF hetero-trimers using Spec-seq” (BMC Molecular Biology, 2018):
Blank lines part the entries; values can stand above or below the molecule they belong to.

Legend:
BATF3;JUNB (human;human) = experiment: Spec-seq (EMSA); settings: no IRF; 100 nM BATFx-JUNB, 150 nM IRF, 1 uM dsDNA library; 50 mM K acetate, 20 mM Tris-acetate, 10 mM Mg acetate, 100 ug/ml BSA, pH 7.9 (25 C), 10% glycerol; 30 min on …
BATF;JUNB (human;human) = experiment: Spec-seq (EMSA); settings: no IRF; 100 nM BATFx-JUNB, 150 nM IRF, 1 uM dsDNA library; 50 mM K acetate, 20 mM Tris-acetate, 10 mM Mg acetate, 100 ug/ml BSA, pH 7.9 (25 C), 10% glycerol; 30 min on …
[1] = test system: BATF2 (bZIP);JUNB (human;human); experiment: Spec-seq (EMSA); settings: 100 nM BATFx-JUNB, 150 nM IRF, 1 uM dsDNA library, 50 mM K acetate, 20 mM Tris-acetate, 10 mM Mg acetate, 100 ug/ml BSA, pH 7.9 (25 C), 10% glycerol, 30 min on …
[2] = test system: BATF;JUNB;IRF4 (human;human;human); experiment: Spec-seq (EMSA); settings: reference; 100 nM BATFx-JUNB, 150 nM IRF, 1 uM dsDNA library; 50 mM K acetate, 20 mM Tris-acetate, 10 mM Mg acetate, 100 ug/ml BSA, pH 7.9 (25 C), 10% glycerol; 30 min on …
[3] = test system: BATF3;JUNB;IRF4 (human;human;human); experiment: Spec-seq (EMSA); settings: reference; 100 nM BATFx-JUNB, 150 nM IRF, 1 uM dsDNA library; 50 mM K acetate, 20 mM Tris-acetate, 10 mM Mg acetate, 100 ug/ml BSA, pH 7.9 (25 C), 10% glycerol; 30 min on …
[4] = test system: BATF2 (bZIP);JUNB;IRF8 (human;human;mouse); experiment: Spec-seq (EMSA); settings: reference; 100 nM BATFx-JUNB, 150 nM IRF, 1 uM dsDNA library; 50 mM K acetate, 20 mM Tris-acetate, 10 mM Mg acetate, 100 ug/ml BSA, pH 7.9 (25 C), 10% glycerol; 30 min on …
[5] = test system: BATF3;JUNB;IRF8 (human;human;mouse); experiment: Spec-seq (EMSA); settings: reference; 100 nM BATFx-JUNB, 150 nM IRF, 1 uM dsDNA library; 50 mM K acetate, 20 mM Tris-acetate, 10 mM Mg acetate, 100 ug/ml BSA, pH 7.9 (25 C), 10% glycerol; 30 min on …
[6] = test system: BATF2 (bZIP);JUNB;IRF4 (human;human;human); experiment: Spec-seq (EMSA); settings: reference; 100 nM BATFx-JUNB, 150 nM IRF, 1 uM dsDNA library; 50 mM K acetate, 20 mM Tris-acetate, 10 mM Mg acetate, 100 ug/ml BSA, pH 7.9 (25 C), 10% glycerol; 30 min on …
[7] = test system: BATF;JUNB;IRF8 (human;human;mouse); experiment: Spec-seq (EMSA); settings: reference; 100 nM BATFx-JUNB, 150 nM IRF, 1 uM dsDNA library; 50 mM K acetate, 20 mM Tris-acetate, 10 mM Mg acetate, 100 ug/ml BSA, pH 7.9 (25 C), 10% glycerol; 30 min on …
IRF8 (full length mouse) = target: T1, IRF8 (full length mouse) (mouse, UniProt P23611 1-424); experiment: native gel or EMSA; complex formed on a dsDNA library: 100 nM BATFx-JUNB heterodimer, 150 nM IRF protein, 1 uM dsDNA library in 1x NEB Cutsmart buffer (pH 7.9) with 10% glycerol, 30 min on ice; native 9% PAGE in Tris/Glycine at 4 °C; settings: both partners purified
T1 construct: IRF8 (interferon regulatory factor 8), mouse, full length; also called IRFx; source: E. coli BL21(DE3), purified (Strep-Tactin Superflow), strep-tag cleaved off by thrombin; not shown: Strep-tag, N-terminal, cleaved
T1 sequence (looked up): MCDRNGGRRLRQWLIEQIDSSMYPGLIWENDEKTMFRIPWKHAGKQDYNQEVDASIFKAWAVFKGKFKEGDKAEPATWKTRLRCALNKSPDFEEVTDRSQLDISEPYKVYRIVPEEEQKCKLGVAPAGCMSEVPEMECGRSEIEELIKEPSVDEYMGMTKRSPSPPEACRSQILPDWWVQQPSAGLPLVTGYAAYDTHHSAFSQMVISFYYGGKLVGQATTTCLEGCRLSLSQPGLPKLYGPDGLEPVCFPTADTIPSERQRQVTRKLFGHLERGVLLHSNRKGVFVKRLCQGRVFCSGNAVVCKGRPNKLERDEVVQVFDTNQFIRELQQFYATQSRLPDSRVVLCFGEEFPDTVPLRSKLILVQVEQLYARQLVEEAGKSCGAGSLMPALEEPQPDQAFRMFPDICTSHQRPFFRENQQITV

IRF4 (full length human) = target: T2, IRF4 (full length human) (human, UniProt Q15306 1-451); experiment: as above; settings: both partners purified
T2 construct: IRF4 (interferon regulatory factor 4), human, full length; also called IRFx; source: E. coli BL21(DE3), purified (Strep-Tactin Superflow), strep-tag cleaved off by thrombin; not shown: Strep-tag, N-terminal, cleaved
T2 sequence (looked up): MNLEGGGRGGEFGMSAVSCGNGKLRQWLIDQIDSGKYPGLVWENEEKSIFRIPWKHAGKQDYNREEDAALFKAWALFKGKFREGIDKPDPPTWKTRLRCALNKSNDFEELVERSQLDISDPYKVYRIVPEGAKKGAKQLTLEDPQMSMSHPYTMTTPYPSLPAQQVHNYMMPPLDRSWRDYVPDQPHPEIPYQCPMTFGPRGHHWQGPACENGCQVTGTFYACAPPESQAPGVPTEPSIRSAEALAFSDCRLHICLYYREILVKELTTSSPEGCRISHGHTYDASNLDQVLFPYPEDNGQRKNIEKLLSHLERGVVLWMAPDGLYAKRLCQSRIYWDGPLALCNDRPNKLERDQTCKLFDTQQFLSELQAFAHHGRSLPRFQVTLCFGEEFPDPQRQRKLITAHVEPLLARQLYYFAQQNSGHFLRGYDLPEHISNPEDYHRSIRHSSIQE

Molecule: CRE (TGACGTCA)
binding signal (kT (-ln bound/unbound)) (BATF3;JUNB (human;human)): -1.75 | binding signal (kT (-ln bound/unbound)) (BATF;JUNB (human;human)): -1.05 | binding signal (kT (-ln bound/unbound)) ([1]; no IRF): -1.32

Molecule: TRE-0sp (TGAGTCAT)
binding signal (kT vs TRE-0sp) [2]: 0 | binding signal (kT (-ln bound/unbound)) (BATF;JUNB (human;human)): -1.05 | binding signal (kT vs TRE-0sp) [3]: 0 | binding signal (kT vs TRE-0sp) [4]: 0 | binding signal (kT vs TRE-0sp) [5]: 0 | binding signal (kT vs TRE-0sp) [6]: 0 | binding signal (kT vs TRE-0sp) [7]: 0 | binding signal (kT (-ln bound/unbound)) [1]: -0.903

Molecule: TRE-1sp (ATGAGTCA)
binding signal (kT (-ln bound/unbound)) (BATF;JUNB (human;human)): -1.25 | binding signal (kT (-ln bound/unbound)) [1]: -1.01

binding result (IRF8 (full length mouse)): binds | binding result (IRF4 (full length human)): binds
B1: BATF–JUNB hetero-dimer (complex, human)
chain 1: MPHSSDSSDSSFSRSPPPGKQDSSDDVRRVQRREKNRIAAQKSRQRQTQKADTLHLESEDLEKQNAALRKEIKQLTEELKYFTSVLNSHEPLCSVLAASTPSPPEVVYSAHAFHQPHVSSPRFQP
chain 2: KMNHVTPPNVSLGATGGPPAGPGGVYAGPEPPPVYTNLSSYSPASASSGGAGAAVGTGSSYPTTTISYLPHAPPFAGGHPAQLGLGRGASTFKEEPQTVPEARSRDATPPVSPINMEDQERIKVERKRLRNRLAATKCRKRKLERIARLEDKVKTLKAENAGLSSTAGLLREQVAQLKQKVMTHVSNGCQLLLGVKGHAF
notes: BATF, human, full length; Heterodimer formed by co-expression before purification; also called BATFx–JUNB; source: SHuffle T7 Express E. coli, co-expressed, purified (Ni-NTA agarose), mCherry cleaved off with ProTEV Plus; not shown: mCherry, N-terminal, cleaved

binding result (IRF8 (full length mouse)): binds | binding result (IRF4 (full length human)): binds
B2: BATF2–JUNB hetero-dimer (complex, human)
chain 1: MHLCGGNGLLTQTDPKEQQRQLKKQKNRAAAQRSRQKHTDKADALHQQHESLEKDNLALRKEIQSLQAELAWWSRTLHVHERLCPMDCASCSAPGLLGCWDQAEGLLGPGPQGQHGCREQLELFQTPGSCYPAQPLSPGPQP
chain 2: B1 chain 2
notes: Heterodimer formed by co-expression before purification; also called BATFx–JUNB; source: SHuffle T7 Express E. coli, co-expressed, purified (Ni-NTA agarose), mCherry cleaved off with ProTEV Plus; not shown: mCherry, N-terminal, cleaved
